Test results published in article PMC10170137 (Nature Communications, 2023).
Substitutions are numbered along the chain they refer to. Names may count otherwise.

Experiments:
[1] = target: T1, DaArgC (Denitrovibrio acetiphilus, UniProt D4H3H4); assay: Nash assay of formaldehyde, inhibition of formyl phosphate reductase activity; coupled to EcAckA; assay type: biochemical; settings: read-out: N-acetyl-γ-glutamate / IC50
T1 construct: gene argC; dimer
T1 sequence (D4H3H4 1-334): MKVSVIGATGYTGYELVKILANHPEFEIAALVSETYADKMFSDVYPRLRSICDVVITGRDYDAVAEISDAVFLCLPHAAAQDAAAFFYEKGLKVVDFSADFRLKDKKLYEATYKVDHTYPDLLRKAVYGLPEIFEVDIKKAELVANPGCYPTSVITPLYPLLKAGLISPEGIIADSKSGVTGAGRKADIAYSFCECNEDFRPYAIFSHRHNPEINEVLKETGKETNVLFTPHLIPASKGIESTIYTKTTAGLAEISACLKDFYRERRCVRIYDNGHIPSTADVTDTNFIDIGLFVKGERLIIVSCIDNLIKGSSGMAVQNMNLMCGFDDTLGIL
Text: (§1) Nash assay of formaldehyde, inhibition of formyl phosphate reductase activity; coupled to EcAckA on DaArgC

[2] = target: T2, DaArgC (Denitrovibrio acetiphilus, UniProt D4H3H4, G182V/L233I/S178V); assay: as above; assay type: biochemical; settings: read-out: N-acetyl-γ-glutamate / IC50
T2 construct: gene argC; dimer
T2 sequence (D4H3H4 entry or part of it S178V/G182V/L233I): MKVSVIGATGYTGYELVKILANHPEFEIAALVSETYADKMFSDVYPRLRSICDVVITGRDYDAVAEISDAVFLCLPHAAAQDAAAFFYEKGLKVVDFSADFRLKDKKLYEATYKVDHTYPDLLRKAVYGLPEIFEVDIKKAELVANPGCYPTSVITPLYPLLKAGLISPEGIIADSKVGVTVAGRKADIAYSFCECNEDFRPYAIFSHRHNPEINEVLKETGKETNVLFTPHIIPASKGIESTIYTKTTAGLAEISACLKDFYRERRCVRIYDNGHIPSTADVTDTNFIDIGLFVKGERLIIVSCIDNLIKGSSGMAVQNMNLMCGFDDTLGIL
Text: as §1

[3] = target: T3, EcArgC (Escherichia coli, UniProt P11446); assay: Nash assay of formaldehyde; coupled to EcAckA; assay type: biochemical; settings: formyl phosphate made in situ by 2 µM EcAckA from 50 mM ammonium formate and 5 mM ATP; 250 µM NAD(P)H, 1 mM CoA, 10 mM MgCl2, MOPS-KOH pH 7.0, 30 °C
T3 construct: gene argC
T3 sequence (P11446 1-334): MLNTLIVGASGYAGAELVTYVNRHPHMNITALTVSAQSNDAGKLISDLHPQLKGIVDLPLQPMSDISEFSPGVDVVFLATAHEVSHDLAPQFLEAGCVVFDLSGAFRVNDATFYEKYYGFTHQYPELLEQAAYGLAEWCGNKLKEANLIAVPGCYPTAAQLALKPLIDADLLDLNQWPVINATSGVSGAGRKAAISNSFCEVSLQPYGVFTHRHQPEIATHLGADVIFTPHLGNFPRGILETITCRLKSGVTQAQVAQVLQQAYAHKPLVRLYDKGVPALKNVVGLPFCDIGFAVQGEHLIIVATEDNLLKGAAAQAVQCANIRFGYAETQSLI

[4] = target: T4, EcProA (Escherichia coli, UniProt P07004); assay: Nash assay of formaldehyde; coupled to EcAckA; assay type: biochemical; settings: formyl phosphate made in situ by 2 µM EcAckA from 50 mM ammonium formate and 5 mM ATP; 250 µM NAD(P)H, 1 mM CoA, 10 mM MgCl2, MOPS-KOH pH 7.0, 30 °C
T4 construct: gene proA
T4 sequence (P07004 1-417): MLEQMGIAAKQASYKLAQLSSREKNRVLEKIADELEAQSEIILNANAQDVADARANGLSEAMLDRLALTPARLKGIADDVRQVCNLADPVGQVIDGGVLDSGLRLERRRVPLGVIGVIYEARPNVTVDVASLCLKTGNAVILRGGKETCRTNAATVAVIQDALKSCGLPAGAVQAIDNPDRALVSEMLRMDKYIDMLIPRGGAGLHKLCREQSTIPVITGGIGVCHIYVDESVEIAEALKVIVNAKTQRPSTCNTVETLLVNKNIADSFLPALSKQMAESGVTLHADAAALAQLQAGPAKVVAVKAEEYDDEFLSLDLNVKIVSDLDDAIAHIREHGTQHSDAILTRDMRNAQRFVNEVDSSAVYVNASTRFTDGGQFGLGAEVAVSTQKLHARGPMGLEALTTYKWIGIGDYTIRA

[5] = target: T5, EcASD (Escherichia coli, UniProt P0A9Q9); assay: Nash assay of formaldehyde; coupled to EcAckA; assay type: biochemical; settings: formyl phosphate made in situ by 2 µM EcAckA from 50 mM ammonium formate and 5 mM ATP; 250 µM NAD(P)H, 1 mM CoA, 10 mM MgCl2, MOPS-KOH pH 7.0, 30 °C
T5 construct: gene asd
T5 sequence (P0A9Q9 1-367): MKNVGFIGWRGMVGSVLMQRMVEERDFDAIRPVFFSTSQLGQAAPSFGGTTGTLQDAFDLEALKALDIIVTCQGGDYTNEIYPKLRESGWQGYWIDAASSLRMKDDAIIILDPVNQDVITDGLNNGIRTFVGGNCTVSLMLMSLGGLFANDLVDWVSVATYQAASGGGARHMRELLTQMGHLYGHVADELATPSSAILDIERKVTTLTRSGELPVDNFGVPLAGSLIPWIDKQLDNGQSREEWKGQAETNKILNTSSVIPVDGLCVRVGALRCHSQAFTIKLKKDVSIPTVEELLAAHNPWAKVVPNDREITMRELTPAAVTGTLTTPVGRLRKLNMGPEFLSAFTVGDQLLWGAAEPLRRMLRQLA

[6] = target: T6, EcGapA (Escherichia coli, UniProt P0A9B2); assay: Nash assay of formaldehyde; coupled to EcAckA; assay type: biochemical; settings: formyl phosphate made in situ by 2 µM EcAckA from 50 mM ammonium formate and 5 mM ATP; 250 µM NAD(P)H, 1 mM CoA, 10 mM MgCl2, MOPS-KOH pH 7.0, 30 °C
T6 construct: gene gapA
T6 sequence (P0A9B2 2-331): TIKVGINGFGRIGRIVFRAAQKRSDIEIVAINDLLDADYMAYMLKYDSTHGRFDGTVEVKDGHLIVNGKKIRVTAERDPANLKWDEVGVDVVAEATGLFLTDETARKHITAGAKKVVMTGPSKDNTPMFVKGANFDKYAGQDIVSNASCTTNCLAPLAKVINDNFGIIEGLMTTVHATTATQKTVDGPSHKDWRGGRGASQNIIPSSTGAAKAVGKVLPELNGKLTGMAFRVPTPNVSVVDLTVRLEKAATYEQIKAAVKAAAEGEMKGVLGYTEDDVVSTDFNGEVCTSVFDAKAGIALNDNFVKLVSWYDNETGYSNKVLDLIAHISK

[7] = substrate: NC(=O)C1=CN([C@@H]2O[C@H](COP(=O)(O)OP(=O)(O)OC[C@H]3O[C@@H](n4cnc5c(N)ncnc54)[C@H](OP(=O)(O)O)[C@@H]3O)[C@@H](O)[C@H]2O)C=CC1; assay: Nash assay of formaldehyde, fluorescence; coupled to EcAckA; assay type: biochemical, Denitrovibrio acetiphilus; settings: formyl phosphate made in situ by 10 µM EcAckA from 500 mM ammonium formate and 5 mM ATP, 10 mM MgCl2, MOPS-KOH pH 7.0, 30 °C, varied: cofactor
Text: (§2) Nash assay of formaldehyde, fluorescence; coupled to EcAckA on DaArgC

[8] = target: the molecule itself; assay: SEC; HiLoad 16/600 Superdex 200 pg in SEC buffer (75 mM KCl, 25 mM HEPES-KOH pH 7.8), loaded straight after Ni affinity purification, before crystallisation
[9] = substrate: O=COP(=O)(O)O; assay: Nash assay of formaldehyde, initial slopes, synthetic formyl phosphate; assay type: biochemical, Denitrovibrio acetiphilus; settings: 1 mM NADPH, 10 mM MgCl2, MOPS pH 7.0, 30 °C, freshly synthesized crude formyl phosphate
Text: Nash assay of formaldehyde, initial slopes, synthetic formyl phosphate on […]

[10] = substrate: NC(=O)C1=CN([C@@H]2O[C@H](COP(=O)(O)OP(=O)(O)OC[C@H]3O[C@@H](n4cnc5c(N)ncnc54)[C@H](O)[C@@H]3O)[C@@H](O)[C@H]2O)C=CC1; assay: Nash assay of formaldehyde, fluorescence; coupled to EcAckA; assay type: biochemical, Denitrovibrio acetiphilus; settings: formyl phosphate made in situ by 10 µM EcAckA from 250 mM ammonium formate and 5 mM ATP, 10 mM MgCl2, MOPS-KOH pH 7.0, 30 °C, varied: cofactor
Text: as §2

CC(=O)N[C@@H](CCC(=O)O)C(=O)O [N-acetyl-γ-glutamate]
IC50 [1]: 5.1 ± 1 mM
IC50 [2]: 24.6 ± 7.9 mM

O=COP(=O)(O)O [formyl phosphate]
Nash assay of formaldehyde; coupled to EcAckA [3]: EcArgC and EcGapA performed best under the chosen conditions
Nash assay of formaldehyde; coupled to EcAckA [4]: (EcASD, EcArgC, EcGapA, EcProA), we detected FPR activity in all cases
Nash assay of formaldehyde; coupled to EcAckA [5]: (EcASD, EcArgC, EcGapA, EcProA), we detected FPR activity in all cases
Nash assay of formaldehyde; coupled to EcAckA [6]: EcArgC and EcGapA performed best under the chosen conditions

B1: Denitrovibrio acetiphilus N-acetyl-γ-glutamyl phosphate reductase (DaArgC), wild type (enzyme)
chain: T1 sequence (D4H3H4 1-334)
notes: N-acetyl-γ-glutamyl phosphate reductase (ArgC) of Denitrovibrio acetiphilus; also called WT DaArgC; Denitrovibrio acetiphilus N-acetyl-γ-glutamyl phosphate dehydrogenase; source: E. coli BL21 (DE3), purified (Ni-Sepharose HisTrap FF, Superdex 200 SEC)
Km [7]: 160 ± 20 µM
kcat [7]: 0.66 ± 0.03 s⁻¹
kcat/Km [7]: 4100 M⁻¹ s⁻¹
binding result [8]: binds

B2: DaArgC (Denitrovibrio acetiphilus DSM 12809; G182V/S178V) (protein)
chain: T1 sequence (D4H3H4 1-334) with S178V, G182V
notes: dimer
Km [9]: 38000 ± 9000 µM
kcat [9]: 0.17 ± 0.02 s⁻¹
kcat/Km [9]: 3.1 M⁻¹ s⁻¹
Km [10]: 300 ± 40 µM
kcat [10]: 0.12 ± 0.00 s⁻¹
kcat/Km [10]: 400 M⁻¹ s⁻¹
Km [7]: 60 ± 20 µM
kcat [7]: 0.26 ± 0.03 s⁻¹
kcat/Km [7]: 4300 M⁻¹ s⁻¹

B3: DaArgC (Denitrovibrio acetiphilus DSM 12809; G182V/L233I/S178V) (protein)
chain: T1 sequence (D4H3H4 1-334) with S178V, G182V, L233I
notes: dimer
Km [9]: 18000 ± 7000 µM
kcat [9]: 0.12 ± 0.02 s⁻¹
kcat/Km [9]: 4.6 M⁻¹ s⁻¹
Km [10]: 340 ± 50 µM
kcat [10]: 0.09 ± 0.00 s⁻¹
kcat/Km [10]: 260 M⁻¹ s⁻¹
Km [7]: 50 ± 10 µM
kcat [7]: 0.23 ± 0.02 s⁻¹
kcat/Km [7]: 4600 M⁻¹ s⁻¹

B4: DaArgC3, triple substitution variant (G182V, S178V, L233I) of Denitrovibrio acetiphilus N-acetyl-γ-glutamyl phosphate reductase (enzyme)
chain: T1 sequence (D4H3H4 1-334) with S178V, G182V, L233I
notes: N-acetyl-γ-glutamyl phosphate reductase (ArgC) of Denitrovibrio acetiphilus with G182V, S178V and L233I; Found by iterative saturation mutagenesis of DaArgC; also called formyl phosphate reductase variant; source: E. coli BL21 (DE3), purified (Ni-Sepharose HisTrap FF, Superdex 200 SEC)
binding result [8]: binds

B5: DaArgC (Denitrovibrio acetiphilus DSM 12809; G182V) (protein)
chain: T1 sequence (D4H3H4 1-334) with G182V
notes: dimer
Km [9]: 31000 ± 7000 µM
kcat [9]: 0.11 ± 0.01 s⁻¹
kcat/Km [9]: 2.4 M⁻¹ s⁻¹
Km [10]: 280 ± 50 µM
kcat [10]: 0.08 ± 0.00 s⁻¹
kcat/Km [10]: 280 M⁻¹ s⁻¹
Km [7]: 40 ± 10 µM
kcat [7]: 0.14 ± 0.02 s⁻¹
kcat/Km [7]: 3500 M⁻¹ s⁻¹
